Here are results for eight molecules from publication PMC9723947, “Ornate, large, extremophilic (OLE) RNA forms a kink turn necessary for OapC protein recognition and RNA function”.

Data set [1] addresses T1, YbxF/OapC WT (Bacillus halodurans C-125) (UniProt Q9Z9M0).
T1 sequence: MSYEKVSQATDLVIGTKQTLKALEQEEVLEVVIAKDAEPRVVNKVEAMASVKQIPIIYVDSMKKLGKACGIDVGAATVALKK
Description: filter binding. The following applies: Filter binding: 20 mM Tris-HCl pH 7.5, 150 mM NaCl, 10 mM MgCl2, 1 mM TCEP, ~20 C, 15 min, ~10 pM RNA.

Data set [2] has as its target T1, YbxF/OapC WT (Bacillus halodurans C-125). Kind of data set: footprinting (in-line probing). Conditions: Filter binding: 20 mM Tris-HCl pH 7.5, 150 mM NaCl, 10 mM MgCl2, 1 mM TCEP, ~20 C, 15 min, ~10 pM RNA.
The target in data set [3] is T2, YbxF/OapC WT (Bacillus halodurans C-125, UniProt Q9Z9M0 1-82).
T2 sequence: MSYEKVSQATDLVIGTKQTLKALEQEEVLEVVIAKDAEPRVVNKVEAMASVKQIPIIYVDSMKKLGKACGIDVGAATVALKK
Kind of data set: filter binding; Filter binding: 20 mM Tris-HCl pH 7.5, 150 mM NaCl, 10 mM MgCl2, 1 mM TCEP, ~20 C, 15 min, ~10 pM RNA. Conditions: protein: recombinant, tags: N-terminal His6 + PreScission (3C) site, label: 5' 32P.

Data set [4] addresses T2, YbxF/OapC WT. Kind of data set: filter binding; no binding at 1 uM or higher protein; Filter binding: 20 mM Tris-HCl pH 7.5, 150 mM NaCl, 10 mM MgCl2, 1 mM TCEP, ~20 C, 15 min, ~10 pM RNA. Conditions: protein: recombinant; tags: N-terminal His6 + PreScission (3C) site; label: 5' 32P; hairpin.

For the molecule “GGCCUUGAGUGGAGUAGAGGGGAUUAUGGGUUUUGAAGCAAUCCGCUGUCGGCCAACAGCCAUUGCCUCUCUAGUACCAUAUGAAAUCUGCUCUGCAAAAGAG [OLE293-394]”, in data set [1], the binding entry is on record as “no binding”.

In the case of “GGCACAUCGAUGAAGCUCCUUGUGAUGGCUUGAGGCGCCCAGCCUUGGGUCAUUGCUGGGAGAAAAGGUAGUAGGGCGAUCCACAAAGGCAUGUGGGCGAUGACCCUCCUACUGUGGAGGCCUUUUUCUCUGCUGCUUAUGUAUGGACAUAGG [OLE78-230]”, the binding result in data set [1] is given as “binds more weakly”.

Take “GGCAUUUAAAGAGGAUUACAGUGUGGACUAAGUGGUAAUCCAGUCUGGCGUUUGGUGACAGCGCCAAGUUCAACAUAAAGGGAAACCGCCAGCGCGGCGACGCACUGGUGUUGAAUUGGGAAAUCCUACUGGACCUAAGCCACAGAGUUUACUCUUUAAAUG [OLE449-608]”: the binding result in data set [1] is given as “no binding”.

As to “GGCACAUCGAUGAAGCUCCUUGUGAUGGCUUGAGGCGCCCAGCCUUGGGUCAUUGCUGGGAGAAAAGGUAGUAGGGCGAUCCACAAAGGCAUGUGGGCGAUGACCCUCCUACUGUGGAGGCCUUUUUCUCUGCUGCUUAUGUAUGGACAUAGGGCAAGAGCAAAGGGUAUGAACCUGCGAAGGCAAGCUAGGGAGCUUGUCAGCAGCGUAGCC [OLE78-290]”, the binding entry in data set [1] and in data set [2] was “binds” in each case.

B1: OLE83-147 (structured_RNA)
RNA: GGAUCGAUGAAGCUCCUUGUGAUGGCUUGAGGCGCCCAGCCUUGGGUCAUUGCUGGGAGAAAAGGUA
For B1, the binding result in the data set with YbxF/OapC WT [3] was “binds”.

B2: OLE k-turn WT (structured_RNA)
RNA: GGAUCGAUGAAGCUCCCGAAAGGGAGAAAAGGUA
For B2, the binding result with YbxF/OapC WT [3] (hairpin with k-turn) is given as “binds”.

B3: OLE k-turn U84C (structured_RNA)
RNA: GGACCGAUGAAGCUCCCGAAAGGGAGAAAAGGUA
Turning to B3, the binding result with YbxF/OapC WT [3] (hairpin with k-turn) is given as “binds”.

B4: OLE k-turn C85A (structured_RNA)
RNA: GGAUAGAUGAAGCUCCCGAAAGGGAGAAAAGGUA
With B4, in the data set with YbxF/OapC WT [4], the binding result is given as “no binding”.
